One data set has as its target T1, Fdh3A (Thermococcus onnurineus, UniProt B6YU84).
T1 construct: gene TON_0539; Catalytic subunit alone; N-terminal 6xHis tag; expressed in T. onnurineus MF02 (parent 156T, fdh3 region deleted); one-step TALON IMAC
T1 sequence (B6YU84 1-680): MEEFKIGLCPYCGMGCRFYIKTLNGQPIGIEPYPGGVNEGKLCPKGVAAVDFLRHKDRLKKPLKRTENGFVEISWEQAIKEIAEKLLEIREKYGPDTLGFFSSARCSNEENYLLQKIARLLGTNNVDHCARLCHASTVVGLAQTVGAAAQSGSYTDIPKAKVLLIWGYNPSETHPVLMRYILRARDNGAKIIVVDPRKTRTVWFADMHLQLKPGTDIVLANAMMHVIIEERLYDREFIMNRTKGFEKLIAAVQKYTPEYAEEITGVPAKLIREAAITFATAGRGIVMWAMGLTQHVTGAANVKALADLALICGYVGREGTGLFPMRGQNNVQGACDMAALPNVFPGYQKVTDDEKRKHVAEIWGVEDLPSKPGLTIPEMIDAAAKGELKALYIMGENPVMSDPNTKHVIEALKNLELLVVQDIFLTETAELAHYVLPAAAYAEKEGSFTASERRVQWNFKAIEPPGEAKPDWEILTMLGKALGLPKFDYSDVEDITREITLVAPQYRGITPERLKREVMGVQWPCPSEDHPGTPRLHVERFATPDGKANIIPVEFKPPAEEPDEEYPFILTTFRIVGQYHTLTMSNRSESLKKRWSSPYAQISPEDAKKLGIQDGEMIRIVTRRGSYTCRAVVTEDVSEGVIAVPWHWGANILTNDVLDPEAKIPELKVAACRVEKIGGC
As to the kind of experiment: formate-dependent methyl viologen reduction, absorbance at […] nm. The class given is biochemical. The conditions noted are these: 100 mM sodium formate, 2 mM methyl viologen, 0.1 M Tris-HCl pH 8.5, 10% glycerol, 2 mM DTT; anaerobic; turnover only.

The target in data set [1] is Fdh3A, formate dehydrogenase large (catalytic) subunit (TON_0539) of Thermococcus onnurineus NA1, with N-terminal 6X-His tag (Thermococcus onnurineus NA1).
The target is the same in data set [2]. Nature of the data set: affinity purification with mass spectrometry; lysate of strain MF01 on TALON IMAC resin (N-terminal 6X-His on Fdh3A), eluted with 300 mM imidazole, then SEC on Superose 6 Increase 10/300 in buffer A (0.1 M Tris-HCl pH 8.0, 150 mM NaCl, 19 mM KCl, 10% glycerol); bands of the SDS-PAGE identified by MALDI mass spectrometry; anaerobic chamber.

Substrate in data set [3]: NC(=O)c1ccc[n+]([C@@H]2O[C@H](COP(=O)(O)OP(=O)(O)OC[C@H]3O[C@@H](n4cnc5c(N)ncnc54)[C@H](OP(=O)(O)O)[C@@H]3O)[C@@H](O)[C@H]2O)c1
As to the kind of experiment: purified protein. The class given is biochemical, Thermococcus onnurineus. As to conditions: co-substrate formate (100 mM in the standard assay), 0.1 M Tris-HCl pH 8.5, 10% glycerol, 2 mM DTT, anaerobic, optimum 80 °C (temperature of Km assay not stated), site on Fdh3B (TON_0542) by model.

Substrate in data set [4]: O=CO
Nature of the data set: purified protein. As to conditions: NADP+ as electron acceptor (2 mM in the standard assay), 0.1 M Tris-HCl pH 8.5, 10% glycerol, 2 mM DTT, anaerobic, optimum 80 °C (temperature of Km assay not stated), catalytic site on Fdh3A (TON_0539).

5 molecules from article PMC8965080 (Frontiers in Microbiology, 2022) can be followed below.

In general, stoichiometry N refers to the number of molecules, sites or subunits per partner or assembly. Usually Km stands for the concentration of substrate that gives half-maximal velocity.

Regarding `O=CO` [formate], on Fdh3A, the “formate-dependent methyl viologen reduction, absorbance at 578 nm” value is “The specific activities of formate-dependent methyl viologen reduction of Fdh3 and Fdh3A were similar”. In data set [1], “ferredoxin Fd0317 (TON_0317) of Thermococcus onnurineus NA1 (from UniProt B6YTB5 1-67) (natural protein)” yielded a formate-dependent ferredoxin-reducing activity of Fdh3A alone (purified from strain MF02), based on the same methyl viologen activity of 16.8 mU/U; a formate-dependent ferredoxin-reducing activity of the purified Fdh3 complex (Fdh3A with Fdh3B, Fdh3G1 and Fdh3G2), based on the same methyl viologen activity of 17.9 mU/U. Molecule “Fdh3B, NAD(P)-binding protein (TON_0542) of Thermococcus onnurineus NA1 (natural protein)” displayed a stoichiometry N in data set [2] of 1. Consider `C[n+]1ccc(-c2cc[n+](C)cc2)cc1` [methyl viologen], for which, on Fdh3A, the “formate-dependent methyl viologen reduction, absorbance at 578 nm” value is “The specific activities of formate-dependent methyl viologen reduction of Fdh3 and Fdh3A were similar”.

B1: Fdh3 (Thermococcus onnurineus NA1) (protein)
chain 1: MEEFKIGLCPYCGMGCRFYIKTLNGQPIGIEPYPGGVNEGKLCPKGVAAVDFLRHKDRLKKPLKRTENGFVEISWEQAIKEIAEKLLEIREKYGPDTLGFFSSARCSNEENYLLQKIARLLGTNNVDHCARLCHASTVVGLAQTVGAAAQSGSYTDIPKAKVLLIWGYNPSETHPVLMRYILRARDNGAKIIVVDPRKTRTVWFADMHLQLKPGTDIVLANAMMHVIIEERLYDREFIMNRTKGFEKLIAAVQKYTPEYAEEITGVPAKLIREAAITFATAGRGIVMWAMGLTQHVTGAANVKALADLALICGYVGREGTGLFPMRGQNNVQGACDMAALPNVFPGYQKVTDDEKRKHVAEIWGVEDLPSKPGLTIPEMIDAAAKGELKALYIMGENPVMSDPNTKHVIEALKNLELLVVQDIFLTETAELAHYVLPAAAYAEKEGSFTASERRVQWNFKAIEPPGEAKPDWEILTMLGKALGLPKFDYSDVEDITREITLVAPQYRGITPERLKREVMGVQWPCPSEDHPGTPRLHVERFATPDGKANIIPVEFKPPAEEPDEEYPFILTTFRIVGQYHTLTMSNRSESLKKRWSSPYAQISPEDAKKLGIQDGEMIRIVTRRGSYTCRAVVTEDVSEGVIAVPWHWGANILTNDVLDPEAKIPELKVAACRVEKIGGC
chain 2: MSGMRFAFLCRERPEPTGKKIAVIGAGPAGLAATGYLVCQGHEVHVYDKLPEPGGLMLFGIPEFRIPIYRVREGYEELERVYNVKFFTRTKVYFGNLEGESGDEFVENRVDFKELVEKYDAVLIATGTWKCWIPNIEGAELEGVFPALEYLFRIKSAKLGHMDWGKVTPVEGKKVLVVGAGHTAVDAALESVLLGADKVYLSYRRTIREAPAGAYEINLLQQRGVKWLERTMPVRIIGENGKVRAVELVKTKLSEPDESGRRRPVPIEGSNFQIDVDYVIFAVGQSPTPPFAEEIDIAVDKKGRIVVDNRHMTSREGVFAAGDVVLGPSKVGKAVKDGLYAAEAMHMWLMGR
notes: Tungsten-containing cytoplasmic complex; N-terminal 6xHis tag on TON_0539; overexpressed in T. onnurineus MF01 (fdh1 fdh2 fdh3 deleted), TALON IMAC and SEC; 524 kDa by SEC; TON_0541 not detected
With B1, the Km in “purified protein [3]” was 0.040 mM; in “purified protein [4]” it was 13.5 mM.
